# Molecular target: Human Fc (human)
# Test: ELISA, negative control
row,optical density [OD],Binder
1,0.554,"369_F01 (antibody, V domains shown) VH: EVQLLESGGGLVQPGGSLRLSCAASGFTFSSYGMNWVRQAPGKGLEWVSGINYNGGYKSYADSVKGRFTISRDNSKNTLYLQMNSLRAEDTAVYYCARSANWHDTALDYWGQGTLVTVSS VL: DIQMTQSPSSLSASVGDRVTITCRASQSILTYVNWYQQKPGKAPKLLIYAATSRASGVPSRFSGSGSGTDFTLTISSLQPEDFATYYCQQSYELPLTFGGGTKVEIK"
2,0.371,"370_D04 (antibody, V domains shown) VH: EVQLLESGGGLVQPGGSLRLSCAASGFTFDSYSMNWVRQAPGKGLEWVANINYNSGYKGYADSVKGRFTISRDNSKNTLYLQMNSLRAEDTAVYYCARSANWHDTALDYWGQGTLVTVSS VL: DIQMTQSPSSLSASVGDRVTITCRASQSILTYLNWYQQKPGKAPKLVIYAATSRASGVPSRFSGSGSGTDFTLTISSLQPEDFATYYCQQSYDNPLTFGGGTKVEIK"
3,0.385,"369_G04 (antibody, V domains shown) VH: EVQLLESGGGLVQPGGSLRLSCAASGFTFDSYSMNWVRQAPGKGLEWVSGINYNGGYTSYADSVKGRFTISRDNSKNTLYLQMNSLRAEDTAVYYCARSANWHDTALDYWGQGTLVTVSS VL: DIQMTQSPSSLSASVGDRVTITCRASQSILTYVNWYQQKPGKAPKLLIYATTSRHSGVPSRFSGSGSGTDFTLTISSLQPEDFATYYCQQSYETPLTFGGGTKVEIK"
4,0.346,"370_C05 (antibody, V domains shown) VH: EVQLLESGGGLVQPGGSLRLSCAASGFTFSSYSMNWVRQAPGKGLEWVAGINYNSGYTGYADSVKGRFTISRDNSKNTLYLQMNSLRAEDTAVYYCARSANWHDTALDYWGQGTLVTVSS VL: DIQMTQSPSSLSASVGDRVTITCRASQSILSYVNWYQQKPGKAPKLVIYAATSRASGVPSRFSGSGSGTDFTLTISSLQPEDFATYYCQQSYNSPLTFGGGTKVEIK"
5,0.353,"369_G12 (antibody, V domains shown) VH: EVQLLESGGGLVQPGGSLRLSCAASGFTFSSYSMNWVRQAPGKGLEWVANINYNGGYTGYADSVKGRFTISRDNSKNTLYLQMNSLRAEDTAVYYCARSANWHDTALDYWGQGTLVTVSS VL: DIQMTQSPSSLSASVGDRVTITCRASQSILTYVNWYQQKPGKAPKLVIYAATSRHSGVPSRFSGSGSGTDFTLTISSLQPEDFATYYCQQSDNTPLTFGGGTKVEIK"
6,0.361,"369_F10 (antibody, V domains shown) VH: EVQLLESGGGLVQPGGSLRLSCAASGFTFDSYGMNWVRQAPGKGLEWVSNINYNSGYKSYADSVKGRFTISRDNSKNTLYLQMNSLRAEDTAVYYCARSANWHDTALDYWGQGTLVTVSS VL: DIQMTQSPSSLSASVGDRVTITCRASQSIVTYLNWYQQKPGKAPKLLIYAVTSRASGVPSRFSGSGSGTDFTLTISSLQPEDFATYYCQQSYDLPLTFGGGTKVEIK"
7,0.37,"369_F11 (antibody, V domains shown) VH: EVQLLESGGGLVQPGGSLRLSCAASGFTFDSYGMNWVRQAPGKGLEWVSNINYNSGYKSYADSVKGRFTISRDNSKNTLYLQMNSLRAEDTAVYYCARSANWHDTALDYWGQGTLVTVSS VL: DIQMTQSPSSLSASVGDRVTITCRASQSIISYLNWYQQKPGKAPKLLIYAATSRASGVPSRFSGSGSGTDFTLTISSLQPEDFATYYCQQSYDLPLTFGGGTKVEIK"
8,0.478,"369_F02 (antibody, V domains shown) VH: EVQLLESGGGLVQPGGSLRLSCAASGFTFSSYGMNWVRQAPGKGLEWVASINYNSGYKSYADSVKGRFTISRDNSKNTLYLQMNSLRAEDTAVYYCARSANWHDTALDYWGQGTLVTVSS VL: DIQMTQSPSSLSASVGDRVTITCRASQSIVSYLNWYQQKPGKAPKLVIYAATSRASGVPSRFSGSGSGTDFTLTISSLQPEDFATYYCQQSYDTPLTFGGGTKVEIK"
9,0.365,"369_H09 (antibody, V domains shown) VH: EVQLLESGGGLVQPGGSLRLSCAASGFTFDDYSMNWVRQAPGKGLEWVSGINYNGGYTSYADSVKGRFTISRDNSKNTLYLQMNSLRAEDTAVYYCARSANWHDTALDYWGQGTLVTVSS VL: DIQMTQSPSSLSASVGDRVTITCRASQSILSYVNWYQQKPGKAPKLLIYAVTSLASGVPSRFSGSGSGTDFTLTISSLQPEDFATYYCQQSYESPLTFGGGTKVEIK"
10,0.377,"370_A04 (antibody, V domains shown) VH: EVQLLESGGGLVQPGGSLRLSCAASGFTFDSYSMNWVRQAPGKGLEWVSGINYNGGYTSYADSVKGRFTISRDNSKNTLYLQMNSLRAEDTAVYYCARSANWHDTALDYWGQGTLVTVSS VL: DIQMTQSPSSLSASVGDRVTITCRASQSIITYLNWYQQKPGKAPKLLIYAATSRASGVPSRFSGSGSGTDFTLTISSLQPEDFATYYCQQSYDNPLTFGGGTKVEIK"
11,0.457,"369_H05 (antibody, V domains shown) VH: EVQLLESGGGLVQPGGSLRLSCAASGFTFSSYGMNWVRQAPGKGLEWVANINYNGGYTGYADSVKGRFTISRDNSKNTLYLQMNSLRAEDTAVYYCARSANWHDTALDYWGQGTLVTVSS VL: DIQMTQSPSSLSASVGDRVTITCRASQSIVSYVNWYQQKPGKAPKLLIYAATSRASGVPSRFSGSGSGTDFTLTISSLQPEDFATYYCQQSYSNPLTFGGGTKVEIK"
12,0.403,"370_C01 (antibody, V domains shown) VH: EVQLLESGGGLVQPGGSLRLSCAASGFTFDSYSMNWVRQAPGKGLEWVSGINYNSGYTGYADSVKGRFTISRDNSKNTLYLQMNSLRAEDTAVYYCARSANWHDTALDYWGQGTLVTVSS VL: DIQMTQSPSSLSASVGDRVTITCRASQSILTYLNWYQQKPGKAPKLVIYAATSLASGVPSRFSGSGSGTDFTLTISSLQPEDFATYYCQQSYDTPLTFGGGTKVEIK"
13,0.381,"370_C08 (antibody, V domains shown) VH: EVQLLESGGGLVQPGGSLRLSCAASGFTFSSYGMNWVRQAPGKGLEWVAGINYNGGYKGYADSVKGRFTISRDNSKNTLYLQMNSLRAEDTAVYYCARSANWHDTALDYWGQGTLVTVSS VL: DIQMTQSPSSLSASVGDRVTITCRASQSISNYLNWYQQKPGKAPKLLIYAVTSRASGVPSRFSGSGSGTDFTLTISSLQPEDFATYYCQQSYDSPLTFGGGTKVEIK"
14,0.474,"369_G06 (antibody, V domains shown) VH: EVQLLESGGGLVQPGGSLRLSCAASGFTFDSYGMNWVRQAPGKGLEWVAGINYNGGYTSYADSVKGRFTISRDNSKNTLYLQMNSLRAEDTAVYYCARSANWHDTALDYWGQGTLVTVSS VL: DIQMTQSPSSLSASVGDRVTITCRASQSILSYVNWYQQKPGKAPKLVIYAATSRASGVPSRFSGSGSGTDFTLTISSLQPEDFATYYCQQSYENPLTFGGGTKVEIK"
15,0.424,"370_A03 (antibody, V domains shown) VH: EVQLLESGGGLVQPGGSLRLSCAASGFTFSSYSMNWVRQAPGKGLEWVSNINYNGGYTSYADSVKGRFTISRDNSKNTLYLQMNSLRAEDTAVYYCARSANWHDTALDYWGQGTLVTVSS VL: DIQMTQSPSSLSASVGDRVTITCRASQSILSYLNWYQQKPGKAPKLLIYAATSRASGVPSRFSGSGSGTDFTLTISSLQPEDFATYYCQQSYDSPLTFGGGTKVEIK"
16,0.389,"369_F03 (antibody, V domains shown) VH: EVQLLESGGGLVQPGGSLRLSCAASGFTFSDYGMNWVRQAPGKGLEWVSGINYNSGYTSYADSVKGRFTISRDNSKNTLYLQMNSLRAEDTAVYYCARSANWHDTALDYWGQGTLVTVSS VL: DIQMTQSPSSLSASVGDRVTITCRASQSIVSYVNWYQQKPGKAPKLLIYAATSLASGVPSRFSGSGSGTDFTLTISSLQPEDFATYYCQQSYDSPLTFGGGTKVEIK"
17,0.331,"369_G11 (antibody, V domains shown) VH: EVQLLESGGGLVQPGGSLRLSCAASGFTFSSYSMNWVRQAPGKGLEWVANINYNSGYKGYADSVKGRFTISRDNSKNTLYLQMNSLRAEDTAVYYCARSANWHDTALDYWGQGTLVTVSS VL: DIQMTQSPSSLSASVGDRVTITCRASQSILTYLNWYQQKPGKAPKLLIYAATSLASGVPSRFSGSGSGTDFTLTISSLQPEDFATYYCQQSYESPLTFGGGTKVEIK"
18,0.34,"370_D11 (antibody, V domains shown) VH: EVQLLESGGGLVQPGGSLRLSCAASGFTFDSYSMNWVRQAPGKGLEWVSGINYNGGYTGYADSVKGRFTISRDNSKNTLYLQMNSLRAEDTAVYYCARSANWHDTALDYWGQGTLVTVSS VL: DIQMTQSPSSLSASVGDRVTITCRASQSIVSYLNWYQQKPGKAPKLLIYAATSRASGVPSRFSGSGSGTDFTLTISSLQPEDFATYYCQQSYDTPLTFGGGTKVEIK"
19,0.353,"369_F06 (antibody, V domains shown) VH: EVQLLESGGGLVQPGGSLRLSCAASGFTFDDYSMNWVRQAPGKGLEWVAGINYNGGYKGYADSVKGRFTISRDNSKNTLYLQMNSLRAEDTAVYYCARSANWHDTALDYWGQGTLVTVSS VL: DIQMTQSPSSLSASVGDRVTITCRASQSIVSYVNWYQQKPGKAPKLVIYAATSRASGVPSRFSGSGSGTDFTLTISSLQPEDFATYYCQQSYDSPLTFGGGTKVEIK"
20,0.347,"369_H06 (antibody, V domains shown) VH: EVQLLESGGGLVQPGGSLRLSCAASGFTFSSYGMNWVRQAPGKGLEWVANINYNGGYKSYADSVKGRFTISRDNSKNTLYLQMNSLRAEDTAVYYCARSANWHDTALDYWGQGTLVTVSS VL: DIQMTQSPSSLSASVGDRVTITCRASQSIVSYVNWYQQKPGKAPKLLIYAATSRASGVPSRFSGSGSGTDFTLTISSLQPEDFATYYCQQSYDTPLTFGGGTKVEIK"
21,0.674,"370_A12 (antibody, V domains shown) VH: EVQLLESGGGLVQPGGSLRLSCAASGFTFSSYGMNWVRQAPGKGLEWVAGINYNGGYTSYADSVKGRFTISRDNSKNTLYLQMNSLRAEDTAVYYCARSANWHDTALDYWGQGTLVTVSS VL: DIQMTQSPSSLSASVGDRVTITCRASQSILTYLNWYQQKPGKAPKLLIYAATSLASGVPSRFSGSGSGTDFTLTISSLQPEDFATYYCQQSYDSPLTFGGGTKVEIK"
22,0.637,"370_A01 (antibody, V domains shown) VH: EVQLLESGGGLVQPGGSLRLSCAASGFTFSSYSMNWVRQAPGKGLEWVSGINYNSGYKSYADSVKGRFTISRDNSKNTLYLQMNSLRAEDTAVYYCARSANWHDTALDYWGQGTLVTVSS VL: DIQMTQSPSSLSASVGDRVTITCRASQSISTYLNWYQQKPGKAPKLVIYAATSRASGVPSRFSGSGSGTDFTLTISSLQPEDFATYYCQQSYNLPLTFGGGTKVEIK"

# — US20210380703A1
